Source: US20210388087A1 (Chugai, published 2021)

target: T1, CD3 epsilon homodimer protein (UniProt P07766 23-126); test: SPR Biacore T200, CD3e homodimer on chip, vs unaltered GLS3000 antibody
T1 construct: also called CD3 (CD3 epsilon)
T1 sequence (P07766 23-126): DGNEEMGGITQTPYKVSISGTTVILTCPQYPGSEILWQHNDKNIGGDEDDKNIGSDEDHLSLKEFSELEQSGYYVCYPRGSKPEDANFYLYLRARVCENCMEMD

Row | Binder | ratio of amounts bound (Z=Y/X)
1 | GLS3000 G89R (antibody, name in Kabat numbering, V domains shown, one-arm IgG as m2) VH: QVQLVESGGGVVQPGRSLRLSCAASGFTFSNAWMHWVRQAPGKGLEWVAQIKAKSNNYATYYAESVKGRFTISRDDSKNSLYLQMNSLKTEDTAVYYCRYVHYGAYYGVDAWGQGTTVTVSS VL: DIVMTQSPLSLPVTPGEPASISCRSSQSLVHSNRNTYLHWYQQKPGQAPRLLIYKVSNRFSGVPDRFSGSGSGTDFTLKISRVEAEDVGVYYCRQGTQVPYTFGQGTKLEIK | 0.19
2 | GLS3000 G91T (antibody, name in Kabat numbering, V domains shown, one-arm IgG as m2) VH: QVQLVESGGGVVQPGRSLRLSCAASGFTFSNAWMHWVRQAPGKGLEWVAQIKAKSNNYATYYAESVKGRFTISRDDSKNSLYLQMNSLKTEDTAVYYCRYVHYGAYYGVDAWGQGTTVTVSS VL: DIVMTQSPLSLPVTPGEPASISCRSSQSLVHSNRNTYLHWYQQKPGQAPRLLIYKVSNRFSGVPDRFSGSGSGTDFTLKISRVEAEDVGVYYCGQTTQVPYTFGQGTKLEIK | 0.26
3 | GLS3000 G89Y (antibody, name in Kabat numbering, V domains shown, one-arm IgG as m2) VH: QVQLVESGGGVVQPGRSLRLSCAASGFTFSNAWMHWVRQAPGKGLEWVAQIKAKSNNYATYYAESVKGRFTISRDDSKNSLYLQMNSLKTEDTAVYYCRYVHYGAYYGVDAWGQGTTVTVSS VL: DIVMTQSPLSLPVTPGEPASISCRSSQSLVHSNRNTYLHWYQQKPGQAPRLLIYKVSNRFSGVPDRFSGSGSGTDFTLKISRVEAEDVGVYYCYQGTQVPYTFGQGTKLEIK | 1.19
4 | GLS3000 G91P (antibody, name in Kabat numbering, V domains shown, one-arm IgG as m2) VH: QVQLVESGGGVVQPGRSLRLSCAASGFTFSNAWMHWVRQAPGKGLEWVAQIKAKSNNYATYYAESVKGRFTISRDDSKNSLYLQMNSLKTEDTAVYYCRYVHYGAYYGVDAWGQGTTVTVSS VL: DIVMTQSPLSLPVTPGEPASISCRSSQSLVHSNRNTYLHWYQQKPGQAPRLLIYKVSNRFSGVPDRFSGSGSGTDFTLKISRVEAEDVGVYYCGQPTQVPYTFGQGTKLEIK | 0.27
5 | GLS3000 G91D (antibody, name in Kabat numbering, V domains shown, one-arm IgG as m2) VH: QVQLVESGGGVVQPGRSLRLSCAASGFTFSNAWMHWVRQAPGKGLEWVAQIKAKSNNYATYYAESVKGRFTISRDDSKNSLYLQMNSLKTEDTAVYYCRYVHYGAYYGVDAWGQGTTVTVSS VL: DIVMTQSPLSLPVTPGEPASISCRSSQSLVHSNRNTYLHWYQQKPGQAPRLLIYKVSNRFSGVPDRFSGSGSGTDFTLKISRVEAEDVGVYYCGQDTQVPYTFGQGTKLEIK | 0.16
6 | GLS3000 G91E (antibody, name in Kabat numbering, V domains shown, one-arm IgG as m2) VH: QVQLVESGGGVVQPGRSLRLSCAASGFTFSNAWMHWVRQAPGKGLEWVAQIKAKSNNYATYYAESVKGRFTISRDDSKNSLYLQMNSLKTEDTAVYYCRYVHYGAYYGVDAWGQGTTVTVSS VL: DIVMTQSPLSLPVTPGEPASISCRSSQSLVHSNRNTYLHWYQQKPGQAPRLLIYKVSNRFSGVPDRFSGSGSGTDFTLKISRVEAEDVGVYYCGQETQVPYTFGQGTKLEIK | 0.16
7 | GLS3000 G91S (antibody, name in Kabat numbering, V domains shown, one-arm IgG as m2) VH: QVQLVESGGGVVQPGRSLRLSCAASGFTFSNAWMHWVRQAPGKGLEWVAQIKAKSNNYATYYAESVKGRFTISRDDSKNSLYLQMNSLKTEDTAVYYCRYVHYGAYYGVDAWGQGTTVTVSS VL: DIVMTQSPLSLPVTPGEPASISCRSSQSLVHSNRNTYLHWYQQKPGQAPRLLIYKVSNRFSGVPDRFSGSGSGTDFTLKISRVEAEDVGVYYCGQSTQVPYTFGQGTKLEIK | 0.26
8 | GLS3000 G89T (antibody, name in Kabat numbering, V domains shown, one-arm IgG as m2) VH: QVQLVESGGGVVQPGRSLRLSCAASGFTFSNAWMHWVRQAPGKGLEWVAQIKAKSNNYATYYAESVKGRFTISRDDSKNSLYLQMNSLKTEDTAVYYCRYVHYGAYYGVDAWGQGTTVTVSS VL: DIVMTQSPLSLPVTPGEPASISCRSSQSLVHSNRNTYLHWYQQKPGQAPRLLIYKVSNRFSGVPDRFSGSGSGTDFTLKISRVEAEDVGVYYCTQGTQVPYTFGQGTKLEIK | 1.03
9 | GLS3000 G89V (antibody, name in Kabat numbering, V domains shown, one-arm IgG as m2) VH: QVQLVESGGGVVQPGRSLRLSCAASGFTFSNAWMHWVRQAPGKGLEWVAQIKAKSNNYATYYAESVKGRFTISRDDSKNSLYLQMNSLKTEDTAVYYCRYVHYGAYYGVDAWGQGTTVTVSS VL: DIVMTQSPLSLPVTPGEPASISCRSSQSLVHSNRNTYLHWYQQKPGQAPRLLIYKVSNRFSGVPDRFSGSGSGTDFTLKISRVEAEDVGVYYCVQGTQVPYTFGQGTKLEIK | 1.63
10 | GLS3000 G91A (antibody, name in Kabat numbering, V domains shown, one-arm IgG as m2) VH: QVQLVESGGGVVQPGRSLRLSCAASGFTFSNAWMHWVRQAPGKGLEWVAQIKAKSNNYATYYAESVKGRFTISRDDSKNSLYLQMNSLKTEDTAVYYCRYVHYGAYYGVDAWGQGTTVTVSS VL: DIVMTQSPLSLPVTPGEPASISCRSSQSLVHSNRNTYLHWYQQKPGQAPRLLIYKVSNRFSGVPDRFSGSGSGTDFTLKISRVEAEDVGVYYCGQATQVPYTFGQGTKLEIK | 0.27
11 | GLS3000 G89W (antibody, name in Kabat numbering, V domains shown, one-arm IgG as m2) VH: QVQLVESGGGVVQPGRSLRLSCAASGFTFSNAWMHWVRQAPGKGLEWVAQIKAKSNNYATYYAESVKGRFTISRDDSKNSLYLQMNSLKTEDTAVYYCRYVHYGAYYGVDAWGQGTTVTVSS VL: DIVMTQSPLSLPVTPGEPASISCRSSQSLVHSNRNTYLHWYQQKPGQAPRLLIYKVSNRFSGVPDRFSGSGSGTDFTLKISRVEAEDVGVYYCWQGTQVPYTFGQGTKLEIK | 0.5

Continued, values first:

Row | ratio of amounts bound (Z=Y/X) | Binder
12 | 0.17 | GLS3000 G91Y (antibody, name in Kabat numbering, V domains shown, one-arm IgG as m2) VH: QVQLVESGGGVVQPGRSLRLSCAASGFTFSNAWMHWVRQAPGKGLEWVAQIKAKSNNYATYYAESVKGRFTISRDDSKNSLYLQMNSLKTEDTAVYYCRYVHYGAYYGVDAWGQGTTVTVSS VL: DIVMTQSPLSLPVTPGEPASISCRSSQSLVHSNRNTYLHWYQQKPGQAPRLLIYKVSNRFSGVPDRFSGSGSGTDFTLKISRVEAEDVGVYYCGQYTQVPYTFGQGTKLEIK
13 | 0.22 | GLS3000 H27dD (antibody, name in Kabat numbering, V domains shown, one-arm IgG as m2) VH: QVQLVESGGGVVQPGRSLRLSCAASGFTFSNAWMHWVRQAPGKGLEWVAQIKAKSNNYATYYAESVKGRFTISRDDSKNSLYLQMNSLKTEDTAVYYCRYVHYGAYYGVDAWGQGTTVTVSS VL: DIVMTQSPLSLPVTPGEPASISCRSSQSLVDSNRNTYLHWYQQKPGQAPRLLIYKVSNRFSGVPDRFSGSGSGTDFTLKISRVEAEDVGVYYCGQGTQVPYTFGQGTKLEIK
14 | 0.3 | GLS3000 H27dG (antibody, name in Kabat numbering, V domains shown, one-arm IgG as m2) VH: QVQLVESGGGVVQPGRSLRLSCAASGFTFSNAWMHWVRQAPGKGLEWVAQIKAKSNNYATYYAESVKGRFTISRDDSKNSLYLQMNSLKTEDTAVYYCRYVHYGAYYGVDAWGQGTTVTVSS VL: DIVMTQSPLSLPVTPGEPASISCRSSQSLVGSNRNTYLHWYQQKPGQAPRLLIYKVSNRFSGVPDRFSGSGSGTDFTLKISRVEAEDVGVYYCGQGTQVPYTFGQGTKLEIK
15 | 0.3 | GLS3000 H27dM (antibody, name in Kabat numbering, V domains shown, one-arm IgG as m2) VH: QVQLVESGGGVVQPGRSLRLSCAASGFTFSNAWMHWVRQAPGKGLEWVAQIKAKSNNYATYYAESVKGRFTISRDDSKNSLYLQMNSLKTEDTAVYYCRYVHYGAYYGVDAWGQGTTVTVSS VL: DIVMTQSPLSLPVTPGEPASISCRSSQSLVMSNRNTYLHWYQQKPGQAPRLLIYKVSNRFSGVPDRFSGSGSGTDFTLKISRVEAEDVGVYYCGQGTQVPYTFGQGTKLEIK
16 | 0.23 | GLS3000 H27dE (antibody, name in Kabat numbering, V domains shown, one-arm IgG as m2) VH: QVQLVESGGGVVQPGRSLRLSCAASGFTFSNAWMHWVRQAPGKGLEWVAQIKAKSNNYATYYAESVKGRFTISRDDSKNSLYLQMNSLKTEDTAVYYCRYVHYGAYYGVDAWGQGTTVTVSS VL: DIVMTQSPLSLPVTPGEPASISCRSSQSLVESNRNTYLHWYQQKPGQAPRLLIYKVSNRFSGVPDRFSGSGSGTDFTLKISRVEAEDVGVYYCGQGTQVPYTFGQGTKLEIK
17 | 0.29 | GLS3000 H27dK (antibody, name in Kabat numbering, V domains shown, one-arm IgG as m2) VH: QVQLVESGGGVVQPGRSLRLSCAASGFTFSNAWMHWVRQAPGKGLEWVAQIKAKSNNYATYYAESVKGRFTISRDDSKNSLYLQMNSLKTEDTAVYYCRYVHYGAYYGVDAWGQGTTVTVSS VL: DIVMTQSPLSLPVTPGEPASISCRSSQSLVKSNRNTYLHWYQQKPGQAPRLLIYKVSNRFSGVPDRFSGSGSGTDFTLKISRVEAEDVGVYYCGQGTQVPYTFGQGTKLEIK
18 | 0.26 | GLS3000 H27dI (antibody, name in Kabat numbering, V domains shown, one-arm IgG as m2) VH: QVQLVESGGGVVQPGRSLRLSCAASGFTFSNAWMHWVRQAPGKGLEWVAQIKAKSNNYATYYAESVKGRFTISRDDSKNSLYLQMNSLKTEDTAVYYCRYVHYGAYYGVDAWGQGTTVTVSS VL: DIVMTQSPLSLPVTPGEPASISCRSSQSLVISNRNTYLHWYQQKPGQAPRLLIYKVSNRFSGVPDRFSGSGSGTDFTLKISRVEAEDVGVYYCGQGTQVPYTFGQGTKLEIK
19 | 0.63 | GLS3000 H27dF (antibody, name in Kabat numbering, V domains shown, one-arm IgG as m2) VH: QVQLVESGGGVVQPGRSLRLSCAASGFTFSNAWMHWVRQAPGKGLEWVAQIKAKSNNYATYYAESVKGRFTISRDDSKNSLYLQMNSLKTEDTAVYYCRYVHYGAYYGVDAWGQGTTVTVSS VL: DIVMTQSPLSLPVTPGEPASISCRSSQSLVFSNRNTYLHWYQQKPGQAPRLLIYKVSNRFSGVPDRFSGSGSGTDFTLKISRVEAEDVGVYYCGQGTQVPYTFGQGTKLEIK
20 | 0.3 | GLS3000 H27dN (antibody, name in Kabat numbering, V domains shown, one-arm IgG as m2) VH: QVQLVESGGGVVQPGRSLRLSCAASGFTFSNAWMHWVRQAPGKGLEWVAQIKAKSNNYATYYAESVKGRFTISRDDSKNSLYLQMNSLKTEDTAVYYCRYVHYGAYYGVDAWGQGTTVTVSS VL: DIVMTQSPLSLPVTPGEPASISCRSSQSLVNSNRNTYLHWYQQKPGQAPRLLIYKVSNRFSGVPDRFSGSGSGTDFTLKISRVEAEDVGVYYCGQGTQVPYTFGQGTKLEIK
21 | 0.3 | GLS3000 H27dL (antibody, name in Kabat numbering, V domains shown, one-arm IgG as m2) VH: QVQLVESGGGVVQPGRSLRLSCAASGFTFSNAWMHWVRQAPGKGLEWVAQIKAKSNNYATYYAESVKGRFTISRDDSKNSLYLQMNSLKTEDTAVYYCRYVHYGAYYGVDAWGQGTTVTVSS VL: DIVMTQSPLSLPVTPGEPASISCRSSQSLVLSNRNTYLHWYQQKPGQAPRLLIYKVSNRFSGVPDRFSGSGSGTDFTLKISRVEAEDVGVYYCGQGTQVPYTFGQGTKLEIK
